Laboratory results from the supplement of paper PMC10567573.

B1: POMT2 (parent)
chain: LRGGGQVLLGWTLHYFPFFLMGRV

Variants of: B1
Test: protein stability index of a GFP-peptide fusion (GPS, HEK-293T) (PSI 1-6); higher = more stable
Settings: c terminus: a fixed tail appended
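Further: lentivirally expressed fusions sorted by FACS into six bins by GFP to DsRed ratio, PSI derived from sequencing read proportions per bin multiplied by bin number.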

In order of rising protein stability index:
1. LRGGGQVLLGMTLHYFPFFLMGRV [W11M]  1.04
2. LRGGGQVLLGWTLHYFPWFLMGRV [F18W]  1.2
3. LRGGGQVLLGWTDHYFPFFLMGRV [L13D]  1.29
4. LRGRGQVLLGWTLHYFPFFLMGRV [G4R]  1.38
5. LRGGGQVLLGSTLHYFPFFLMGRV [W11S]  1.38
6. LRGFGQVLLGWTLHYFPFFLMGRV [G4F]  1.41
7. LRGGGQVLLGWTLHYFPYFLMGRV [F18Y]  1.42
8. LRGWGQVLLGWTLHYFPFFLMGRV [G4W]  1.47
9. LRGGGQVLLGWTCHYFPFFLMGRV [L13C]  1.51
10. LRGGGQVLQGWTLHYFPFFLMGRV [L9Q]  1.61
11. LRGGGQVVLGWTLHYFPFFLMGRV [L8V]  1.64
12. LRGGGQVLLGWTLHYFPFFSMGRV [L20S]  1.7
13. LRGGGQVLLGETLHYFPFFLMGRV [W11E]  1.74
14. LRGGGQVLCGWTLHYFPFFLMGRV [L9C]  1.75
15. LRGGGQVLLGWTLHYFPFFLMGRC [V24C]  1.83
16. LRGGGQVLEGWTLHYFPFFLMGRV [L9E]  1.89
17. LRGGGQVLHGWTLHYFPFFLMGRV [L9H]  1.91
18. LRGGGQVLLIWTLHYFPFFLMGRV [G10I]  1.92
19. LRGGGQVLLGWLLHYFPFFLMGRV [T12L]  1.93
20. LRGGGQVLLNWTLHYFPFFLMGRV [G10N]  1.97
21. LRGGGIVLLGWTLHYFPFFLMGRV [Q6I]  2.01
22. LRGGGKVLLGWTLHYFPFFLMGRV [Q6K]  2.02
23. LRGGGQVLLGWTLHYFPFFLMGRI [V24I]  2.03
24. LRGGGQVLLGWTLHYFPFFLMGRQ [V24Q]  2.04
25. LRGGGQVLLGWTLHYFPFNLMGRV [F19N]  2.04
26. LRGGGQVLLGTTLHYFPFFLMGRV [W11T]  2.09
27. LRGGGQVLLGWSLHYFPFFLMGRV [T12S]  2.1
28. LRGGGQVLLGHTLHYFPFFLMGRV [W11H]  2.1
29. LRGGGQVLLGWTLHYFPFYLMGRV [F19Y]  2.17
30. SRGGGQVLLGWTLHYFPFFLMGRV [L1S]  2.23
31. LRGGGQVLLGWTLHYQPFFLMGRV [F16Q]  2.26
32. LRGGGQVLLWWTLHYFPFFLMGRV [G10W]  2.32
33. LRGGGQVLLGWTLHYFPFFWMGRV [L20W]  2.38
34. LRGGGQVLLGWTLPYFPFFLMGRV [H14P]  2.43
35. LRGGGLVLLGWTLHYFPFFLMGRV [Q6L]  2.48
36. LRGVGQVLLGWTLHYFPFFLMGRV [G4V]  2.52
37. GRGGGQVLLGWTLHYFPFFLMGRV [L1G]  2.56
38. LRGGGQVLPGWTLHYFPFFLMGRV [L9P]  2.59
39. LRGGGQVLLGWTPHYFPFFLMGRV [L13P]  2.64
40. LRGGGQVLTGWTLHYFPFFLMGRV [L9T]  2.66
41. LRGGGQVLNGWTLHYFPFFLMGRV [L9N]  2.66
42. LRGGGQVLLGRTLHYFPFFLMGRV [W11R]  2.67
43. LRGGGQVLLGWYLHYFPFFLMGRV [T12Y]  2.7
44. ERGGGQVLLGWTLHYFPFFLMGRV [L1E]  2.74
45. LRGGGQVLLGWTLHYFPFFLMGCV [R23C]  2.79
46. LRGGGQVLLGWTLHYFPFFLMGSV [R23S]  2.85
47. LRGGGQVLLTWTLHYFPFFLMGRV [G10T]  2.89
48. LRGGGQVALGWTLHYFPFFLMGRV [L8A]  2.97
49. LRGGGQVLLGQTLHYFPFFLMGRV [W11Q]  3
50. LRGGGQVNLGWTLHYFPFFLMGRV [L8N]  3
51. RRGGGQVLLGWTLHYFPFFLMGRV [L1R]  3.02
52. LRGGGQVLLGWTLHYFPFFLMGWV [R23W]  3.02
53. LRGGGQVLLGWTSHYFPFFLMGRV [L13S]  3.02
54. FRGGGQVLLGWTLHYFPFFLMGRV [L1F]  3.06
55. LRGGGPVLLGWTLHYFPFFLMGRV [Q6P]  3.06
56. LRGGGQVLAGWTLHYFPFFLMGRV [L9A]  3.06
57. LRGGGQVLLGWTLHYGPFFLMGRV [F16G]  3.06
58. LRGGGQVRLGWTLHYFPFFLMGRV [L8R]  3.14
59. LRGGGQVLLGWTLHYFPFFLMGRR [V24R]  3.15
60. LRGGGQVLLGWTLHYFPFFLMGEV [R23E]  3.15
61. LRGGGQVLLGWVLHYFPFFLMGRV [T12V]  3.16
62. ARGGGQVLLGWTLHYFPFFLMGRV [L1A]  3.17
63. LRGKGQVLLGWTLHYFPFFLMGRV [G4K]  3.19
64. LRGGGQVLLGWTLHYFPFFLMGTV [R23T]  3.19
65. LRGGGQVLLGWTLHYHPFFLMGRV [F16H]  3.2
66. LRGGGQVLLGWTLHYFPFWLMGRV [F19W]  3.22
67. LRGGGQVLMGWTLHYFPFFLMGRV [L9M]  3.23
68. LRGGGQVLLPWTLHYFPFFLMGRV [G10P]  3.23
69. LRGGGQVLLGWTLHYFPFFNMGRV [L20N]  3.25
70. LRGGGQVLLGKTLHYFPFFLMGRV [W11K]  3.25
71. LRGGGQVLLYWTLHYFPFFLMGRV [G10Y]  3.25
72. LRGGGQVLLGWTLHYFPFFLMGRY [V24Y]  3.27
73. LRGGGQVLLGWTLFYFPFFLMGRV [H14F]  3.28
74. LRGGGQVLLGWILHYFPFFLMGRV [T12I]  3.35
75. LRGGGQVLLGWTLHYTPFFLMGRV [F16T]  3.4
76. LRGGGQVLLDWTLHYFPFFLMGRV [G10D]  3.44
77. LRGGGQVLLGWTLHYEPFFLMGRV [F16E]  3.44
78. LRGGGQVLLFWTLHYFPFFLMGRV [G10F]  3.45
79. LRGGGQVLLGCTLHYFPFFLMGRV [W11C]  3.48
80. LRGHGQVLLGWTLHYFPFFLMGRV [G4H]  3.5
81. LRGGGQVLLGWTWHYFPFFLMGRV [L13W]  3.5
82. LRGGGQVLLQWTLHYFPFFLMGRV [G10Q]  3.64
83. LRGGGQVLLGWTLHYFPFFLMGRH [V24H]  3.69
84. LRGMGQVLLGWTLHYFPFFLMGRV [G4M]  3.71
85. LRGGGQVYLGWTLHYFPFFLMGRV [L8Y]  3.82
86. LRGGGQVLLSWTLHYFPFFLMGRV [G10S]  3.85
87. LRGGGQVLLGWTLHYFPFSLMGRV [F19S]  3.98
88. LRGGGQVLLGWTLHYFPEFLMGRV [F18E]  4.02
89. LRGGGQVLLGWTLDYFPFFLMGRV [H14D]  4.14
90. LRGGGQVLLGWTLHYFPFFFMGRV [L20F]  4.18
91. LRGGGQVLLGWTLHYFPFFLMGIV [R23I]  4.29
92. LRGGGQVLLGWTLHYFPFGLMGRV [F19G]  4.57
93. LRGGGQVLLGWTLHYFPFQLMGRV [F19Q]  4.97
94. LRGGGQVLLGWTLHYFPFFPMGRV [L20P]  5.95
